Square brackets hold non-standard residues; d marks the D form. Ends that are not written are not given here.
What follows are binders tested against T1, Human recombinant melanocortin MC1 receptor (human, UniProt Q01726 1-317) (assay: radioligand competition, displacement of [125I]NDP-alpha-MSH from human MC1R (CHO-K1), Example 1).
T1 construct: whole, on cells; Eurofins Discovery assay Item 251100; a 3 ug aliquot of receptors from CHO-K1 cells was incubated, filtered and washed (probably a membrane preparation); also called Melanocortin 1 Receptor; MCIR
T1 sequence (Q01726 whole entry): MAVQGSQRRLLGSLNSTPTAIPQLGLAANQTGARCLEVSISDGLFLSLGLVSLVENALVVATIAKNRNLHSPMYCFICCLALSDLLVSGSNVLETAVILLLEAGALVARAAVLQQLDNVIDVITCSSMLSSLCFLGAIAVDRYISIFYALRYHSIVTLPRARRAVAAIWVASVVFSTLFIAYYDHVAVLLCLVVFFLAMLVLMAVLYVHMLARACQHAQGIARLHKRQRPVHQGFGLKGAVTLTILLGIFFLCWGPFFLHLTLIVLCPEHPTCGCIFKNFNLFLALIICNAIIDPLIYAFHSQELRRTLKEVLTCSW
Protocol: (§1) The binding of Group A MCIR peptide antagonists of the disclosure was evaluated in a competition assay (MC1 Human Melanocortin GPCR Binding (Agonist Radioligand) Assay, Item 251100, Eurofins Discovery). Peptides were synthesized by AnaSpec (Fremont, CA). Human recombinant melanocortin MCI receptors were expressed in CHO-K1 cells in modified HEPES-KOH buffer pH 7.0. A 3 μgs aliquot was incubated with 0.04 nM [¹²⁵I]NDP-α-MSH for 120 minutes at 37° C. Non-specific binding was estimated in the presence of 1 μM NDP-α-MSH. Receptors were filtered and washed, and the filters counted to determine [¹²⁵I] NDP-α-MSH specifically bound. Peptide antagonists of the disclosure having amino acid sequences as set forth in SEQ ID NOS: 11, 16, 25, 27, 32, 35, and 40 (each having a C-terminal —NH2) were screened at five concentrations, as well as a positive control, SEQ ID NO: 1 (Melanostatine-5). Inhibition curves were obtained by determining the reduction of bound α-MSH in the presence of an amount of, and/or by increasing amounts of, each peptide antagonist. Non-specific binding of peptide was estimated separately in the presence of a vast excess (1 mM) of unlabeled α-MSH, which occupies all the available receptor binding sites.
Based on the competitive binding curve, the IC₅₀ values were determined (Eurofins or AAT Bioquest IC₅₀ calculator). […]

IC50	Binder
120 nM	MP[dF]R[dW]FKPV (Printed as Met-Pro-D-Phe-Arg-D-Trp-Phe-Lys-Pro-Val; no terminal modification is printed for the control; also called control; positive control) [Melanostatine-5 / Nonapeptide-1 (SEQ ID NO: 1)]

These binders were tested against T1, Human recombinant melanocortin MC1 … (assay: radioligand competition, displacement of [125I]NDP-alpha-MSH from human MC1R (CHO-K1), Example 7).
Protocol: as §1, with “[¹²⁵I]NDP-α-MSH” for “[¹²⁵I] NDP-α-MSH”, “40” for “40 (each having a C-terminal —NH2)”, “concentrations.” for “concentrations, as well as a positive control, SEQ ID NO: 1 (Melanostatine-5).”, “antagonist.” for “antagonist. Non-specific binding of peptide was estimated separately in the presence of a vast excess (1 mM) of unlabeled α-MSH, which occupies all the available receptor binding sites.”

Binder	IC50
MVFR[dW]FKPV-NH2 (N-terminus assumed; SMILES CSCC[C@H](N)C(=O)N[C@H](C(=O)N[C@@H](Cc1ccccc1)C(=O)N[C@@H](CCCNC(=N)N)C(=O)N[C@H](Cc1c[nH]c2ccccc12)C(=O)N[C@@H](Cc1ccccc1)C(=O)N[C@@H](CCCCN)C(=O)N1CCC[C@H]1C(=O)N[C@H](C(N)=O)C(C)C)C(C)C, Printed as Met-Val-Phe-Arg-dTrp-Phe-Lys-Pro-Val-NH2) [SEQ ID NO: 27]	> 500 nM
FV[dF]R[dW]FKPV-NH2 (N-terminus assumed; SMILES CC(C)[C@H](NC(=O)[C@@H]1CCCN1C(=O)[C@H](CCCCN)NC(=O)[C@H](Cc1ccccc1)NC(=O)[C@@H](Cc1c[nH]c2ccccc12)NC(=O)[C@H](CCCNC(=N)N)NC(=O)[C@@H](Cc1ccccc1)NC(=O)[C@@H](NC(=O)[C@@H](N)Cc1ccccc1)C(C)C)C(N)=O, Printed as Phe-Val-dPhe-Arg-dTrp-Phe-Lys-Pro-Val-NH2) [SEQ ID NO: 16]	< 200 nM
IFR[dW]FKPV-NH2 (N-terminus assumed; SMILES CC[C@H](C)[C@H](N)C(=O)N[C@@H](Cc1ccccc1)C(=O)N[C@@H](CCCNC(=N)N)C(=O)N[C@H](Cc1c[nH]c2ccccc12)C(=O)N[C@@H](Cc1ccccc1)C(=O)N[C@@H](CCCCN)C(=O)N1CCC[C@H]1C(=O)N[C@H](C(N)=O)C(C)C, Printed as Ile-Phe-Arg-dTrp-Phe-Lys-Pro-Val-NH2 (8 residues)) [SEQ ID NO: 32]	< 200 nM

Other lines, results leading:

IC50	Binder
200 to 500 nM	AV[dF]R[dW]FKPV-NH2 (N-terminus assumed; SMILES CC(C)[C@H](NC(=O)[C@@H]1CCCN1C(=O)[C@H](CCCCN)NC(=O)[C@H](Cc1ccccc1)NC(=O)[C@@H](Cc1c[nH]c2ccccc12)NC(=O)[C@H](CCCNC(=N)N)NC(=O)[C@@H](Cc1ccccc1)NC(=O)[C@@H](NC(=O)[C@H](C)N)C(C)C)C(N)=O, Printed as Ala-Val-dPhe-Arg-dTrp-Phe-Lys-Pro-Val-NH2) [SEQ ID NO: 11]
> 500 nM	EV[dF]R[dW]FKPV-NH2 (N-terminus assumed; SMILES CC(C)[C@H](NC(=O)[C@@H]1CCCN1C(=O)[C@H](CCCCN)NC(=O)[C@H](Cc1ccccc1)NC(=O)[C@@H](Cc1c[nH]c2ccccc12)NC(=O)[C@H](CCCNC(=N)N)NC(=O)[C@@H](Cc1ccccc1)NC(=O)[C@@H](NC(=O)[C@@H](N)CCC(=O)O)C(C)C)C(N)=O, Printed as Glu-Val-dPhe-Arg-dTrp-Phe-Lys-Pro-Val-NH2) [SEQ ID NO: 25]
< 200 nM	MP[dF]R[dW]FKPV (Printed as Met-Pro-D-Phe-Arg-D-Trp-Phe-Lys-Pro-Val; no terminal modification is printed for the control; also called control; positive control) [Melanostatine-5 / Nonapeptide-1 (SEQ ID NO: 1)]
